Earlier results in paper PMC2827930.

Molecular target: RBPjκ (UniProt P31266)
UniProt P31266, sequence (P31266 53-474): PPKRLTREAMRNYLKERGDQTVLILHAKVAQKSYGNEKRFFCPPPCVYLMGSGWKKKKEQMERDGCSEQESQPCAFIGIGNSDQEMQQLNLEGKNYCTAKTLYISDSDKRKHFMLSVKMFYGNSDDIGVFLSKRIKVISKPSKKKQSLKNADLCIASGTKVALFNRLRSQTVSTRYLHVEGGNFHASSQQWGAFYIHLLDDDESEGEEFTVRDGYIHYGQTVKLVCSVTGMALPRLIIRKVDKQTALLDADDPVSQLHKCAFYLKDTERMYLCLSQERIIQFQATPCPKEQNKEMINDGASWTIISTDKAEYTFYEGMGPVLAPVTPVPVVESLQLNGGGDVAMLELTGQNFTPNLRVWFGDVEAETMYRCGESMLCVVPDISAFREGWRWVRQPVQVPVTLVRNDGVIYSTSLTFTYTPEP

Kd: 0.2 µM
Substance: Notch RAM (from UniProt P46531)
